This is an account of results in article PMC3093366, “A Component of the Xanthomonadaceae Type IV Secretion System Combines a VirB7 Motif with a N0 Domain Found in Outer Membrane Transport Proteins” (PLoS Pathogens, 2011).

Experiment [1] addresses VirB7_(XAC2622_24–139) (Xanthomonas citri subsp. citri strain 306). The experiment can be described thus: NMR 15N relaxation (rotational correlation time); 15N T1 and T2 of 15N-VirB7_(XAC2622_24–139) at 800 µM, 40°C, 600 MHz.
Another experiment addresses T1, VirB7_(XAC2622_51–134) (Xanthomonas citri subsp. citri strain …, UniProt A0AAI7ZGD2 51-134, 15N isotope labelled in the NMR titration).
T1 construct: also called VirB7_(XAC2622) globular domain; N0 domain; source: E. coli BL21(DE3)RP or BL21(DE3)Star, purified (Q-sepharose, Superdex 75)
T1 sequence: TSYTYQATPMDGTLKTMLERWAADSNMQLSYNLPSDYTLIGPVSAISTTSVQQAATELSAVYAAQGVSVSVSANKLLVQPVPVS
Kind of experiment: NMR titration; 15N-labeled VirB7_(XAC2622_51–134) (200 µM) titrated with unlabeled VirB7_(XAC2622_38–52) peptide (0 to 740 µM); 15N-HSQC. To be noted: both partners purified.

Another experiment concerns the target T2, VirB9_(XAC2620_34–255) (Xanthomonas citri subsp. citri strain …, UniProt A0AAI8ESY0 34-255).
T2 construct: also called full length VirB9; full-length VirB9_(XAC2620) minus the first 33 residues
T2 sequence: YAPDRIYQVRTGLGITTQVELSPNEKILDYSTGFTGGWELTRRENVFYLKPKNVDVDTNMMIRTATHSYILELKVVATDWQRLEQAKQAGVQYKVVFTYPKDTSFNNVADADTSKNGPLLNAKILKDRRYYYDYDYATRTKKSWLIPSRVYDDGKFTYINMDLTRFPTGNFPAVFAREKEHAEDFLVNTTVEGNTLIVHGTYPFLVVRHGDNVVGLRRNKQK
The experiment can be described thus: other fluorescence titration; intrinsic fluorescence; 0.1 µM aliquots of VirB7_(XAC2622_24–139_His) added to 1 µM VirB9_(XAC2620_34–255) up to 2.2 µM; 5 mM sodium acetate pH 5.0, 25°C, excitation 280 nm, emission 334–342 nm. To be noted: both partners purified.

In general, stoichiometry N refers to the number of molecules, sites or subunits per partner or assembly. Molecule “VirB7_(XAC2622_24–139) (from UniProt A0AAI7ZGD2 24-139) (domain or fragment)” had a stoichiometry N in experiment [1] of 2.

B1: VirB7_(XAC2622_38–52) (peptide)
peptide: NHFDEAPTEIPLYTS
notes: also called unlabeled peptide encompassing residues 38–52 from the N-terminal region; source: synthetic peptide, bought: EZBiolab
Consider B1, for which the binding result in the experiment with VirB7_(XAC2622_51–134) is “binds”.

B2: VirB7_(XAC2622_24–139_His) (domain or fragment)
chain: TKPAPDFGGRWKHVNHFDEAPTEIPLYTSYTYQATPMDGTLKTMLERWAADSNMQLSYNLPSDYTLIGPVSAISTTSVQQAATELSAVYAAQGVSVSVSANKLLVQPVPVSSGAKL
notes: Form with the pET28a N-terminal His-tag not removed; used in the fluorescence titration; not shown: His-tag, N-terminal, kept
For orientation: Kd means a measure of binding affinity in units of concentration. A lower Kd goes with a tighter complex. As for B2, in the experiment with VirB9_(XAC2620_34–255), the equilibrium dissociation constant (Kd) is around 40 nM and the “stoichiometry N” value is 1 VirB7:VirB9.
